# Data as given in paper PMC7895464 (Journal of molecular biology, 2020).
# Where two headings read alike, the source gives them in different places.
# T1: ClpA-ClpS complex (ClpAS; printed as ClpAPS in the text) (E. coli, UniProt P0ABH9 1-758; P0A8Q6 2-106)
# T1 sequence 1: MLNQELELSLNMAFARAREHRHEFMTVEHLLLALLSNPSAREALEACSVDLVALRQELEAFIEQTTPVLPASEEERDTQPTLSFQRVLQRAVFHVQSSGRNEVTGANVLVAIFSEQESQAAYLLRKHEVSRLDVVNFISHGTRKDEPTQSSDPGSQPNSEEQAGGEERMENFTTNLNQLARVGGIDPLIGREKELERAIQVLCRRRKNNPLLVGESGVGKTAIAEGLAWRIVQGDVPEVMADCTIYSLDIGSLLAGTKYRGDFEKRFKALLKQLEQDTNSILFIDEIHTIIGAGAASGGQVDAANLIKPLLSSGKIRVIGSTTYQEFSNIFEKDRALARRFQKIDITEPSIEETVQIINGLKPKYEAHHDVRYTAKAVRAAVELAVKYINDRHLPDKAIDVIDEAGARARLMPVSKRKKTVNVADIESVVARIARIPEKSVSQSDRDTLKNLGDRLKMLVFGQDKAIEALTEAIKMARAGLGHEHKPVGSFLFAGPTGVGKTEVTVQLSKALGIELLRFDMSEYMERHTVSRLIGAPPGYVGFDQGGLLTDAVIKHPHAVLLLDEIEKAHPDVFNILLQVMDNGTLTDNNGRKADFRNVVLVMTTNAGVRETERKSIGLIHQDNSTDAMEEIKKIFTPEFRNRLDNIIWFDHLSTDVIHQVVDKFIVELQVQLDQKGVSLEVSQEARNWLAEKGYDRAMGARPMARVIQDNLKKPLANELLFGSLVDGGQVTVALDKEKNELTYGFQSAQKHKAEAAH
# T1 sequence 2: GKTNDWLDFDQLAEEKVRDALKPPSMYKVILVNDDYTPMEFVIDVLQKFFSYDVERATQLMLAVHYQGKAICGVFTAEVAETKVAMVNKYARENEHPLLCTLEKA
# T2: ClpA (E. coli, UniProt P0ABH9 1-758)
# T2 sequence (looked up): T1 sequence 1
# B1: λ*^fl-ssrA (fluorescein-labelled ssrA-tagged DNA-binding domain of λ repressor, λ(1-93)^A21C-ssrA) (domain or fragment, bacteriophage λ | E. coli)
# chain: MSTKKKPLTQEQLEDARRLKCIYEKKKNELGLSQESVADKMGMGQSGVGALFNGINALNAYNAALLAKILKVSVEEFSPSIAREIYEMYEAVSAANDENYALAA
# modifications: fluorescein (fluorescein-5-maleimide) on the single cysteine
# B2: ClpS^ΔN17 (domain or fragment, E. coli, UniProt P0A8Q6 18-106, looked up)
# chain: VRDALKPPSMYKVILVNDDYTPMEFVIDVLQKFFSYDVERATQLMLAVHYQGKAICGVFTAEVAETKVAMVNKYARENEHPLLCTLEKA
# B3: ClpS (natural protein, E. coli)
# chain: T1 sequence 2
# B4: ClpA (enzyme)
# chain: T1 sequence 1
# Key:
# [1] = molecular target: T1, ClpA-ClpS complex (ClpAS; printed as …); experiment: fluorescence polarisation
# [2] = molecular target: T2, ClpA; experiment: fluorescence polarisation
# [3] = molecular target: T2, ClpA
# [4] = molecular target: T2, ClpA; experiment: fluorescence polarisation; remark: listed apart in the source
# [5] = molecular target: ClpS*^fl (fluorescein-labelled variant of ClpS containing one cysteine) (E. coli) (UniProt P0A8Q6); experiment: fluorescence polarisation
binder,measurement,setting,value
B1,Kd,[1],~8000 nM
same,Kd,[2],740 nM
B2,Kd,[3],~160 nM
B3,binding result,[4],binds
B4,Kd,[5],160 nM
